How the values were obtained:
[1] = biological target: T1, RAG-1 R838A/K839A/R840A core/RAG-2 core RAG-1 R838A/K839A/R840A (Mus musculus) (UniProt P15919+P21784); test: cell_activity; settings: homologous recombination; signal ends 2.5-fold lower than wild type (FIG. 3C)
T1 sequence 1: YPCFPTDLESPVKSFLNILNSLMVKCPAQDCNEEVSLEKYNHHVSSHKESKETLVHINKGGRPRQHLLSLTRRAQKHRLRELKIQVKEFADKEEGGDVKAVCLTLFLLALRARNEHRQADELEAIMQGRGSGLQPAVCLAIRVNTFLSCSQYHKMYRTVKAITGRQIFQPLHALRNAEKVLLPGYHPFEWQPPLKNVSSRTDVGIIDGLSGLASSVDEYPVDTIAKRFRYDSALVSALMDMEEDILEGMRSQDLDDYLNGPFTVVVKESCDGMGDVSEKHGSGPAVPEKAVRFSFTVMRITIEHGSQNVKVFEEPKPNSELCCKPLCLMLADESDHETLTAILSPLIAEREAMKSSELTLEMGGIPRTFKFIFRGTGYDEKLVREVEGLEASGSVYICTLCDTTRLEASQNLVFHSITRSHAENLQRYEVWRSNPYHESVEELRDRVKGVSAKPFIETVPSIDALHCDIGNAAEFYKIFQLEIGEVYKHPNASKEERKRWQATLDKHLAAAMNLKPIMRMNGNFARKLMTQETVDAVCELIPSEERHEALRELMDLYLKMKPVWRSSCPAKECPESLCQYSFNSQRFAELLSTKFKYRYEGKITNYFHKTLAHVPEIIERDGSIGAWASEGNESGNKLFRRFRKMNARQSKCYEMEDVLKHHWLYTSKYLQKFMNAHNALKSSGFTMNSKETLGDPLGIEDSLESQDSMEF
T1 sequence 2: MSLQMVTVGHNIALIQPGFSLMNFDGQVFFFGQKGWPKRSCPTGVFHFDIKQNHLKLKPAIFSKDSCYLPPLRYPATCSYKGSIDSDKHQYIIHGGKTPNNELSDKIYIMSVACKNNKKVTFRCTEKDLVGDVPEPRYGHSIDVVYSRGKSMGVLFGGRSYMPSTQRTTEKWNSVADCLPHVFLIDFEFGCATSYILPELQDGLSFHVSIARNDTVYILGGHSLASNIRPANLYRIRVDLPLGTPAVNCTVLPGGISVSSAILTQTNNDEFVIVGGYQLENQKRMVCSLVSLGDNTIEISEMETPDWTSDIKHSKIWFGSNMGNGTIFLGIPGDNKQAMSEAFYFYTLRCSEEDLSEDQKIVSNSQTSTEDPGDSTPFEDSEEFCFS

[2] = biological target: T2, RAG-1/RAG-2 core, wild type (Mus musculus, UniProt P15919;P21784 P15919:330-1040,P21784:1-387); test: cell_activity; settings: homologous recombination, extrachromosomal; cleavage seen by Southern blot (FIG. 3C)
T2 sequence 1: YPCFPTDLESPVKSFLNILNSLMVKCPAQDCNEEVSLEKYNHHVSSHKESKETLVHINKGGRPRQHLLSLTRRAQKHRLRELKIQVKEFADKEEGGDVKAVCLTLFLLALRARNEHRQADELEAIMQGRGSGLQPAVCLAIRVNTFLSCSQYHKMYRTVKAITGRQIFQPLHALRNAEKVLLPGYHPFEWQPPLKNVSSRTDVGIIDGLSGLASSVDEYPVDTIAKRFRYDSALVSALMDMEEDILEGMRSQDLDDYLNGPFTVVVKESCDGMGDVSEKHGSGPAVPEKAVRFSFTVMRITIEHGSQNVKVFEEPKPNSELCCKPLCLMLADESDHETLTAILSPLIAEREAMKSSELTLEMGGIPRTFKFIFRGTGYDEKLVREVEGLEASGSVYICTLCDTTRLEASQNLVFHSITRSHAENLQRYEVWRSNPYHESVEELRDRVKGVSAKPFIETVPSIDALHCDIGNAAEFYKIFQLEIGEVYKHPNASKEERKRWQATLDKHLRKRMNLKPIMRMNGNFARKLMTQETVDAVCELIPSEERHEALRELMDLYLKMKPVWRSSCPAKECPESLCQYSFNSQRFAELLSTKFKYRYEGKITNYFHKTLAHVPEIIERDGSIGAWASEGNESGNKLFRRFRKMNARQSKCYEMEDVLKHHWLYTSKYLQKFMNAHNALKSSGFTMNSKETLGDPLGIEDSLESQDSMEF
T2 sequence 2: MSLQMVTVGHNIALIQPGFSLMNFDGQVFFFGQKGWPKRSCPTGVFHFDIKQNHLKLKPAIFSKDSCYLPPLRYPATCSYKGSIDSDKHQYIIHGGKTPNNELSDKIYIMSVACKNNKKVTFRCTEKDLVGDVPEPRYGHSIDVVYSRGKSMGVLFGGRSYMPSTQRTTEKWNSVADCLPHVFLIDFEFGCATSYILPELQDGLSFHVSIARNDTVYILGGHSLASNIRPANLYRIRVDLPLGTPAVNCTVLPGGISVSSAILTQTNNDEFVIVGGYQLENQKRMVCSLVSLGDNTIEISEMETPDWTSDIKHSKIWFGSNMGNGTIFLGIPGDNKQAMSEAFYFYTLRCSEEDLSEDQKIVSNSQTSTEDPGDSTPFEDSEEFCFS

I-SceI = test: cell_activity; settings: homologous recombination; about 2.5-fold fewer broken ends than wild-type core RAG
[3] = biological target: T2, RAG-1/RAG-2 core, wild type; test: cell_activity; homologous recombination, integrated single 12-RSS substrate; robust also for full-length RAG; settings: tags: GST-RAG-1 core (pEBG-1DN) and RAG-2 core (pMal-1 vector); chain copies: 2,2
Method: (§1) Relative stimulation is calculated by dividing the percentage of CFP-positive cells of experimental (nuclease-containing) transfections by the percentage of CFP-positive cells present in the DDE RAG mutant expressing transfection (negative control). It is important to maintain constant (DNA) in each transfection because increases in DNA (including non-substrate molecules) nonspecifically stimulate homologous recombination, as recently reported (Hostager et al., 2003). Experiments have been repeated over a dozen times on three different flow cytometers; FIGS. 3, 4, 6, and 7 show data from five experiments on the Becton Dickinson LSRII.
(§2) The next set of experiments took a complementary approach. Instead of using nick-only RAG proteins, a nick-only substrate was used (i.e., a single 12-RSS, which readily undergoes nicking in vitro (Cuomo et al., 1996; Ramsden et al., 1996) but yields very poor DSB formation in vivo (Steen et al., 1997)). […] Even when the nick-only mutants are assayed on the single RSS substrate, they are able to stimulate homologous recombination as efficiently as the full-length or core wild-type RAG proteins (FIG. 7). […]

RAG-1/RAG-2 full-length = RAG-1/RAG-2 full-length (UniProt P15919;P21784 P15919:1-1040,P21784:1-527); test: cell_activity; homologous recombination, integrated single 12-RSS substrate; settings: chain copies: 2,2
Method: as §1, §2

Molecule: SE substrate (pJH289 recombination zone, 12/23 RSS pair)
- activity (fold over DDE) [1]: 205
- activity (fold over DDE) [2]: 13

Molecule: I-SceI site substrate
- activity (fold over wild-type core RAG) (I-SceI): 9

B1: 12-RSS substrate (dsDNA)
DNA 1: CACAGTGCTACAGACTGGAACAAAAACC
DNA 2: GGTTTTTGTTCCAGTCTGTAGCACTGTG
- activity [3]: 15 fold over DDE
- activity (RAG-1/RAG-2 full-length): 15 fold over DDE

— patent publication US20050069921, “Compositions, kits, and methods for stimulation of homologous recombination” (published 2005)
